B1: nanobody C1 (monovalent VHH, pOPINO construct) (VHH)
VHH: QVQLVESGGGLVQPGGSLRLSCAASGFTNDFYSIAWFRQAPGKEREGVSWLSVSDNTPTYVDSVKDRFTISRHNANNTVYLQMNMLKPEDTAIYYCAAGRFAGRDTWPSSYDYWGQGTQVTVSS
B2: nanobody F2 (monovalent VHH, pOPINO construct) (VHH)
VHH: QVQLVESGGGLVQAGGSLRLACIASGRTFHSYVMAWFRQAPGKEREFVAAISWSSTPTYYGESVKGRFTISRDNAKNTVYLQMNRLKPEDTAVYFCAADRGESYYYTRPTEYEFWGQGTQVTVSS

Key:
[1] = biological target: T1, Beta (B.1.351) RBD, biotinylated (SARS-CoV-2, Beta (B.1.351), N501Y | E484K | K417N, biotinylated (site not stated)); assay: SPR; details: both partners purified
T1 construct: also called Beta RBD; Beta-RBD

[2] = biological target: T2, Alpha (B.1.1.7) RBD, biotinylated (SARS-CoV-2, Alpha (B.1.1.7), N501Y, biotinylated (site not stated)); assay: SPR; details: both partners purified
T2 construct: also called Alpha RBD; RBD-Kent

Row | Binder | Kd [1] [pM] | Kd [2] [pM] | T1/2 [2] [min] | T1/2 [1] [min]
1 | B1 | 648 | 725 | 21 | 
2 | B2 | 38 | 47 | 51 | 52

Source: paper PMC8458290 (Nature Communications, 2021)
